Laboratory results reported in US20220251204A1 (AstraZeneca / MedImmune, published 2022).

Legend:
[1] = target: T1, human CTLA-4 expressed on cells (human, UniProt P16410 36-223); test: cell-based or functional assay
T1 sequence: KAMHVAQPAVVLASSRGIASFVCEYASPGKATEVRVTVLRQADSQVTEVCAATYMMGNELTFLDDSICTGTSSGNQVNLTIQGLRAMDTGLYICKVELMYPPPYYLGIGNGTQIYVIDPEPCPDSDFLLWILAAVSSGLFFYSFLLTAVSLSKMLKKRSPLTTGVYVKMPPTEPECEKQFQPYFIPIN

[2] = target: T2, CTLA-4-Fc (human recombinant protein, R&D Systems) (human, UniProt P16410 37-162); test: Octet, same tip after PDL1-His and bispecific, then CTLA-4-Fc (100 nM per paragraph 296): concurrent binding
T2 construct: also called CTLA-4-Fc antigen; not shown: Fc part of the bought fusion
T2 sequence: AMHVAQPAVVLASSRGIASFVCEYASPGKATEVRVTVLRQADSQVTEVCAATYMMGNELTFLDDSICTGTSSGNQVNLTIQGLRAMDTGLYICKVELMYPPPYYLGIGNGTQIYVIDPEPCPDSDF

[3] = target: T3, human PD-1 expressed on cells (human, UniProt Q15116 25-288); test: flow cytometry, HumanPD1 CHO cells, x axis hIgG1TM mAb (nM)
T3 construct: also called CHO cells overexpressing human PD1
T3 sequence (Q15116 25-288 limits assumed): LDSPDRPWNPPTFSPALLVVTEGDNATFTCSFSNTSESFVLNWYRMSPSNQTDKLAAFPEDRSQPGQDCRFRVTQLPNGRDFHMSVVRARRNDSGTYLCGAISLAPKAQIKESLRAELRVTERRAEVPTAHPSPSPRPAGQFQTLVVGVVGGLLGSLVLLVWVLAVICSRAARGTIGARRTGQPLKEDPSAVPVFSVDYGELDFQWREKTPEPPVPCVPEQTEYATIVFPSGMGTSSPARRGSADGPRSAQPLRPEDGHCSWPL

cynomolgus PD-1 = target: T4, cynomolgus PD-1 (cynomolgus, UniProt B0LAJ3 25-170); test: SPR, BIAcore T200; antibody captured on mouse anti-huIgG-Fab, antigen injected
T4 construct: also called cyno PD1
T4 sequence (B0LAJ3 entry or part of it limits assumed): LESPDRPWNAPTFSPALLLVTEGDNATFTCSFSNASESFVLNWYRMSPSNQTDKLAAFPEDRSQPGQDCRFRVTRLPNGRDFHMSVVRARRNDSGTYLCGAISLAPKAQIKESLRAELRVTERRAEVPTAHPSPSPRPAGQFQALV

[4] = target: T5, human PD-1 antigen (soluble) (human, UniProt Q15116 25-170); test: as above
T5 construct: also called hu PD1; Biotinylated human PD-1
T5 sequence (Q15116 25-170 limits assumed): as the sequence (B0LAJ3 entry or part of it limits assumed) above, with E2D, A10P, L19V, A35T, R75Q, A144T counted along it

human TIM3 (soluble) = target: T6, human TIM3 (soluble) (human, UniProt Q8TDQ0 22-202); test: as above
T6 construct: also called Biotinylated human TIM3
T6 sequence: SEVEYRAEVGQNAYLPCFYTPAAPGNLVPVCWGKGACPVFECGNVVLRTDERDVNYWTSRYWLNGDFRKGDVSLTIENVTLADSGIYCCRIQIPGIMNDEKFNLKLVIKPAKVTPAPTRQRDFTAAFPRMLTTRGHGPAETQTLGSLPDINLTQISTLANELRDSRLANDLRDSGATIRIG

cynomolgus TIM3 = target: T7, cynomolgus TIM3 (cynomolgus, UniProt A0A2K5U3G7 22-195); test: as above
T7 construct: also called Cyno TIM3
T7 sequence: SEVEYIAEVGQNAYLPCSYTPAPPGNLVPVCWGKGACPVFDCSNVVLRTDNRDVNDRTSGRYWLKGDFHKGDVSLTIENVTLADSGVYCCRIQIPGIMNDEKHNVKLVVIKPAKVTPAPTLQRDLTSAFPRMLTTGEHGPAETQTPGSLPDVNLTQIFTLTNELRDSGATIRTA

B1: Bis5 PD-1/CTLA-4 (bispecific antibody, human IgG4 S228P, kappa)
heavy: EVQLVESGGGLVQPGGSLRLSCAASGFTFSDYGMHWVRQAPGKGLEWVAYISSGSYTIYSADSVKGRFTISRDNAKNSLYLQMNSLRAEDTAVYYCARRAPNSFYEYYFDYWGQGTTVTVSSASTKGPSVFPLAPCSRSTSESTAALGCLVKDYFPEPVTVSWNSGALTSGVHTFPAVLQSSGLYSLSSVVTVPSSSLGTKTYTCNVDHKPSNTKVDKRVESKYGPPCPPCPAPEFLGGPSVFLFPPKPKDTLMISRTPEVTCVVVDVSQEDPEVQFNWYVDGVEVHNAKTKPREEQFNSTYRVVSVLTVLHQDWLNGKEYKCKVSNKGLPSSIEKTISKAKGQPREPQVYTLPPSQEEMTKNQVSLTCLVKGFYPSDIAVEWESNGGGGSGGGGSDIQMTQSPSSLSASVGDRVTITCRASQSINSYLDWYQQKPGKAPKLLIYAASSLQSGVPSRFSGSGSGTDFTLTISSLQPEDFATYYCQQYYSTPFTFGCGTKVEIKGGGGSGGGGSGGGGSGGGGSQVQLVESGGGVVQPGRSLRLSCAASGFTFSSYGMHWVRQAPGKCLEWVAVIWYDGSNKYYADSVKGRFTISRDNSKNTLYLQMNSLRAEDTAVYYCARDPRGATLYYYYYGMDVWGQGTTVTVSSGGGGSGGGGSGQPENNYKTTPPVLDSDGSFFLYSRLTVDKSRWQEGNVFSCSVMHEALHNHYTQKSLSLSLGK
light: QIVLTQSPATLSLSPGERATLSCSASSKHTNLYWSRHMYWYQQKPGQAPRLLIYLTSNRATGIPARFSGSGSGTDFTLTISSLEPEDFAVYYCQQWSSNPFTFGQGTKLEIKRTVAAPSVFIFPPSDEQLKSGTASVVCLLNNFYPREAKVQWKVDNALQSGNSQESVTEQDSKDSTYSLSSTLTLSKADYEKHKVYACEVTHQGLSSPVTKSFNRGEC
Question: For B1, which “fold decrease in CTLA-4 reporter gene assay, potency” value [1] is on record?
Answer: ~3 fold

B2: Bis2 PD-L1/CTLA-4 (bispecific antibody, human IgG4 S228P, kappa)
heavy: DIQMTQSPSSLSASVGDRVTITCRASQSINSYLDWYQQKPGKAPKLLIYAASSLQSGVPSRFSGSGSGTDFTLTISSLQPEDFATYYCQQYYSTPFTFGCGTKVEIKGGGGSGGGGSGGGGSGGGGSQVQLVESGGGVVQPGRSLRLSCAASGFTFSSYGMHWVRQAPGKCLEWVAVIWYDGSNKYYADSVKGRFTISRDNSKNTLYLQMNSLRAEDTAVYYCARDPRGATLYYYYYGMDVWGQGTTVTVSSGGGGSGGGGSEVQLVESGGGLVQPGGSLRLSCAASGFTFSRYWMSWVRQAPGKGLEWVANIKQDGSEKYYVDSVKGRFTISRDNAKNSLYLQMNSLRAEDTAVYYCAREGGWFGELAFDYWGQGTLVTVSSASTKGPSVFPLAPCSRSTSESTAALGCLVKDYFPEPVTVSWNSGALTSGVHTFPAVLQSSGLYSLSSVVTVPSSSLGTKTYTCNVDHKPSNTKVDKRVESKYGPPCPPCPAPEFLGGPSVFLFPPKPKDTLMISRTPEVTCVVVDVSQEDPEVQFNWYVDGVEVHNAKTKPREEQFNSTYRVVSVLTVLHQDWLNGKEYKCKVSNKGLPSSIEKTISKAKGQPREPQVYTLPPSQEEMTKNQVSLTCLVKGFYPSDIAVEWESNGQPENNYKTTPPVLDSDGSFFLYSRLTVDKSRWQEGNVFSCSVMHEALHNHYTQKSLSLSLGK
light: EIVLTQSPGTLSLSPGERATLSCRASQRVSSSYLAWYQQKPGQAPRLLIYDASSRATGIPDRFSGSGSGTDFTLTISRLEPEDFAVYYCQQYGSLPWTFGQGTKVEIKRTVAAPSVFIFPPSDEQLKSGTASVVCLLNNFYPREAKVQWKVDNALQSGNSQESVTEQDSKDSTYSLSSTLTLSKADYEKHKVYACEVTHQGLSSPVTKSFNRGEC
Question: Does B2 bind [2]?
Answer: binds

B3: Bis3 PD-L1/CTLA-4 (bispecific antibody, human IgG4 S228P, kappa)
heavy: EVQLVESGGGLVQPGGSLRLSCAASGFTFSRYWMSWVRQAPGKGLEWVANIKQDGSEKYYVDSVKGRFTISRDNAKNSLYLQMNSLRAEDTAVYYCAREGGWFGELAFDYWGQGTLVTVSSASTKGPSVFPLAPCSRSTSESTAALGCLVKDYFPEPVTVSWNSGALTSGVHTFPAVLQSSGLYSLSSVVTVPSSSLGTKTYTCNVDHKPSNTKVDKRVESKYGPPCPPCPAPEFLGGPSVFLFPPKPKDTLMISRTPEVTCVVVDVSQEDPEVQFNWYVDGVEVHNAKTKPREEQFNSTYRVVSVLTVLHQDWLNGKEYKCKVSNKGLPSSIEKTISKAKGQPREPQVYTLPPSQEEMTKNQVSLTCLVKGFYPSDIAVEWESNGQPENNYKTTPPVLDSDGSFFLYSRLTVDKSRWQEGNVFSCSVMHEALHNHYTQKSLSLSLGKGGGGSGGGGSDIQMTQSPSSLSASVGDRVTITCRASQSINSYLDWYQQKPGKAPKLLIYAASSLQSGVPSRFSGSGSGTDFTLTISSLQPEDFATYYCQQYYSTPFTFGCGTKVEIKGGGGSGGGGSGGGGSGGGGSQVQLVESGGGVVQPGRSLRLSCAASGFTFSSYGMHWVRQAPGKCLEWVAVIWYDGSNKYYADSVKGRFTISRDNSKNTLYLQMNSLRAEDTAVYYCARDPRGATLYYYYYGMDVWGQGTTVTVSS
light: EIVLTQSPGTLSLSPGERATLSCRASQRVSSSYLAWYQQKPGQAPRLLIYDASSRATGIPDRFSGSGSGTDFTLTISRLEPEDFAVYYCQQYGSLPWTFGQGTKVEIKRTVAAPSVFIFPPSDEQLKSGTASVVCLLNNFYPREAKVQWKVDNALQSGNSQESVTEQDSKDSTYSLSSTLTLSKADYEKHKVYACEVTHQGLSSPVTKSFNRGEC
Question: Does B3 bind [2]?
Answer: binds

B4: Bis5 PD-L1/CTLA-4 (bispecific antibody, human IgG4 S228P, kappa)
heavy: EVQLVESGGGLVQPGGSLRLSCAASGFTFSRYWMSWVRQAPGKGLEWVANIKQDGSEKYYVDSVKGRFTISRDNAKNSLYLQMNSLRAEDTAVYYCAREGGWFGELAFDYWGQGTLVTVSSASTKGPSVFPLAPCSRSTSESTAALGCLVKDYFPEPVTVSWNSGALTSGVHTFPAVLQSSGLYSLSSVVTVPSSSLGTKTYTCNVDHKPSNTKVDKRVESKYGPPCPPCPAPEFLGGPSVFLFPPKPKDTLMISRTPEVTCVVVDVSQEDPEVQFNWYVDGVEVHNAKTKPREEQFNSTYRVVSVLTVLHQDWLNGKEYKCKVSNKGLPSSIEKTISKAKGQPREPQVYTLPPSQEEMTKNQVSLTCLVKGFYPSDIAVEWESNGGGGSGGGGSDIQMTQSPSSLSASVGDRVTITCRASQSINSYLDWYQQKPGKAPKLLIYAASSLQSGVPSRFSGSGSGTDFTLTISSLQPEDFATYYCQQYYSTPFTFGCGTKVEIKGGGGSGGGGSGGGGSGGGGSQVQLVESGGGVVQPGRSLRLSCAASGFTFSSYGMHWVRQAPGKCLEWVAVIWYDGSNKYYADSVKGRFTISRDNSKNTLYLQMNSLRAEDTAVYYCARDPRGATLYYYYYGMDVWGQGTTVTVSSGGGGSGGGGSGQPENNYKTTPPVLDSDGSFFLYSRLTVDKSRWQEGNVFSCSVMHEALHNHYTQKSLSLSLGK
light: EIVLTQSPGTLSLSPGERATLSCRASQRVSSSYLAWYQQKPGQAPRLLIYDASSRATGIPDRFSGSGSGTDFTLTISRLEPEDFAVYYCQQYGSLPWTFGQGTKVEIKRTVAAPSVFIFPPSDEQLKSGTASVVCLLNNFYPREAKVQWKVDNALQSGNSQESVTEQDSKDSTYSLSSTLTLSKADYEKHKVYACEVTHQGLSSPVTKSFNRGEC
Question: Does B4 bind [2]?
Answer: binds

B5: BiS3 PD-1(LO115)/TIM3(O13-1) (bispecific antibody, human IgG1, kappa)
heavy: EVQLVESGGGLVQPGGSLRLSCAASGFTFSDYGMHWVRQAPGKGLEWVAYISSGSYTIYSADSVKGRFTISRDNAKNSLYLQMNSLRAEDTAVYYCARRAPNSFYEYYFDYWGQGTTVTVSSASTKGPSVFPLAPSSKSTSGGTAALGCLVKDYFPEPVTVSWNSGALTSGVHTFPAVLQSSGLYSLSSVVTVPSSSLGTQTYICNVNHKPSNTKVDKRVEPKSCDKTHTCPPCPAPEFEGGPSVFLFPPKPKDTLMISRTPEVTCVVVDVSHEDPEVKFNWYVDGVEVHNAKTKPREEQYNSTYRVVSVLTVLHQDWLNGKEYKCKVSNKALPASIEKTISKAKGQPREPQVYTLPPSREEMTKNQVSLTCLVKGFYPSDIAVEWESNGQPENNYKTTPPVLDSDGSFFLYSKLTVDKSRWQQGNVFSCSVMHEALHNHYTQKSLSLSPGKGGGGSGGGGSEVQLLESGGGLVQPGGSLRLSCAASGFTFSSYAMSWVRQAPGKCLEWVSAISGSGGSTYYADSVKGRFTISRDNSKNTLYLQMNSLRAEDTAVYYCARGSYGTYYGNYFEYWGQGTLVTVSSGGGGSGGGGSGGGGSGGGGSSYVLTQPPSVSVAPGKTARITCGGDNIGGKSVHWYQQKPGQAPVLVIYYDSDRPSGIPERFSGSNSGNTATLTISRVEAGDEADYYCQVLDRRSDHFLFGCGTKLTVL
light: QIVLTQSPATLSLSPGERATLSCSASSKHTNLYWSRHMYWYQQKPGQAPRLLIYLTSNRATGIPARFSGSGSGTDFTLTISSLEPEDFAVYYCQQWSSNPFTFGQGTKLEIKRTVAAPSVFIFPPSDEQLKSGTASVVCLLNNFYPREAKVQWKVDNALQSGNSQESVTEQDSKDSTYSLSSTLTLSKADYEKHKVYACEVTHQGLSSPVTKSFNRGEC
notes: also called PD-1/TIM3 BiS3
Question: For B5, which “EC50 (read off the curve)” value [3] is on record?
Answer: ~4 nM

B6: LO115 IgG1-TM (antibody, V domains shown)
VH: EVQLVESGGGLVQPGGSLRLSCAASGFTFSDYGMHWVRQAPGKGLEWVAYISSGSYTIYSADSVKGRFTISRDNAKNSLYLQMNSLRAEDTAVYYCARRAPNSFYEYYFDYWGQGTTVTVSS
VL: QIVLTQSPATLSLSPGERATLSCSASSKHTNLYWSRHMYWYQQKPGQAPRLLIYLTSNRATGIPARFSGSGSGTDFTLTISSLEPEDFAVYYCQQWSSNPFTFGQGTKLEIK
notes: also called parental LO115 IgG1
Question: For B6, which Kd (cynomolgus PD-1) is on record?
Answer: 0.81 nM

Question: What about the koff (cynomolgus PD-1) of the same binder?
Answer: 0.000238 s⁻¹

Question: What about the kon (cynomolgus PD-1) of the same binder?
Answer: 346000 M⁻¹ s⁻¹

Question: What about the Kd [4] of the same binder?
Answer: 0.79 nM

Question: And the koff [4]?
Answer: 0.000237 s⁻¹

Question: What about the kon [4] of the same binder?
Answer: 302000 M⁻¹ s⁻¹

B7: PD-1(LO115)/TIM3(O13-1) DuetMab (bispecific antibody, human IgG1, kappa, lambda)
heavy 1: EVQLVESGGGLVQPGGSLRLSCAASGFTFSDYGMHWVRQAPGKGLEWVAYISSGSYTIYSADSVKGRFTISRDNAKNSLYLQMNSLRAEDTAVYYCARRAPNSFYEYYFDYWGQGTTVTVSSASTKGPSVFPLAPSSKSTSGGTAALGCLVKDYFPEPVTVSWNSGALTSGVHTFPAVLQSSGLYSLSSVVTVPSSSLGTQTYICNVNHKPSNTKVDKRVEPKSCDKTHTCPPCPAPEFEGGPSVFLFPPKPKDTLMISRTPEVTCVVVDVSHEDPEVKFNWYVDGVEVHNAKTKPREEQYNSTYRVVSVLTVLHQDWLNGKEYKCKVSNKALPASIEKTISKAKGQPREPQVCTLPPSREEMTKNQVSLSCAVKGFYPSDIAVEWESNGQPENNYKTTPPVLDSDGSFFLVSKLTVDKSRWQQGNVFSCSVMHEALHNHYTQKSLSLSPGK
light 1: QIVLTQSPATLSLSPGERATLSCSASSKHTNLYWSRHMYWYQQKPGQAPRLLIYLTSNRATGIPARFSGSGSGTDFTLTISSLEPEDFAVYYCQQWSSNPFTFGQGTKLEIKRTVAAPSVFIFPPSDEQLKSGTASVVCLLNNFYPREAKVQWKVDNALQSGNSQESVTEQDSKDSTYSLSSTLTLSKADYEKHKVYACEVTHQGLSSPVTKSFNRGEC
heavy 2: not shown
light 2: SYVLTQPPSVSVAPGKTARITCGGDNIGGKSVHWYQQKPGQAPVLVIYYDSDRPSGIPERFSGSNSGNTATLTISRVEAGDEADYYCQVLDRRSDHFLFGGGTKLTVLGQPKAAPSVTLFPPCSEELQANKATLVCLISDFYPGAVTVAWKADSSPVKAGVETTTPSKQSNNKYAASSYLSLTPEQWKSHRSYSCQVTHEGSTVEKTVAPTEVS
notes: also called PD-1/TIM3 DuetMab
Question: For B7, which Kd (cynomolgus PD-1) is on record?
Answer: 0.44 nM

Question: What about the koff (cynomolgus PD-1) of the same binder?
Answer: 0.000215 s⁻¹

Question: And the kon (cynomolgus PD-1)?
Answer: 490000 M⁻¹ s⁻¹

Question: What about the Kd (human TIM3 (soluble)) of the same binder?
Answer: 4.15 nM

Question: And the koff (human TIM3 (soluble))?
Answer: 0.00813 s⁻¹

Question: What about the kon (human TIM3 (soluble)) of the same binder?
Answer: 1.96e+06 M⁻¹ s⁻¹

Question: And the Kd (cynomolgus TIM3)?
Answer: 25.6 nM

Question: And the koff (cynomolgus TIM3)?
Answer: 0.0761 s⁻¹

Question: What about the kon (cynomolgus TIM3) of the same binder?
Answer: 2.98e+06 M⁻¹ s⁻¹

Question: And the Kd [4]?
Answer: 0.81 nM

Question: And the koff [4]?
Answer: 0.000236 s⁻¹

Question: And the kon [4]?
Answer: 295000 M⁻¹ s⁻¹
